{
  "source": "paper PMC4770912",
  "key": {"[1]": {"biological_target": "SIRPα variant (10), three domain construct with rat CD4d3+4 tag (human)", "sequence (main, as listed by the source mutant)": "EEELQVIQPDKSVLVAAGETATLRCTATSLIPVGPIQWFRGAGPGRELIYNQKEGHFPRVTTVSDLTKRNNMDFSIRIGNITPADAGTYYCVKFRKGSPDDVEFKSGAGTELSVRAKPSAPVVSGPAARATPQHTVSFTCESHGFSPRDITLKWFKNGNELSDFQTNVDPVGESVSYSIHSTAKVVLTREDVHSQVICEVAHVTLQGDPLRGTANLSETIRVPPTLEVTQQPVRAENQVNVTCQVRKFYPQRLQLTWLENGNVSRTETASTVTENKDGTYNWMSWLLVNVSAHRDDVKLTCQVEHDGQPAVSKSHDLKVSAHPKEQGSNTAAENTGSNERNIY", "experiment": "SPR; BIAcore 3000; SIRP proteins captured through their rat CD4d3+4 tag on the rat CD4 MAb OX68 immobilised on a CM5 chip (about 1000 RU); human CD47 at 22 uM passed over; RU of the control rat CD4 domains 3 and 4 subtracted"}, "[2]": {"biological_target": "SIRPα variant (10), three domain construct with rat CD4d3+4 tag (human)", "experiment": "SPR; as a1, CD47 at 22 uM passed over again after OX130 MAb had been passed over the immobilised SIRP proteins"}},
  "data": [
    {"substance": "Human CD47 (from UniProt Q08722 19-141) (ligand)", "values": [
      {"measurement": "response units (RU)", "setting": "[1]", "result": 280, "unit": "RU"},
      {"measurement": "response units (RU) after OX130 injection", "setting": "[2]", "result": 247, "unit": "RU"}
    ]}
  ]
}
